This data set concerns the molecule itself. Put plainly: SEC.

B1: MCAK-His6 (purified full-length MCAK) (enzyme, UniProt Q99661 1-725, looked up)
chain: MAMDSSLQARLFPGLAIKIQRSNGLIHSANVRTVNLEKSCVSVEWAEGGATKGKEIDFDDVAAINPELLQLLPLHPKDNLPLQENVTIQKQKRRSVNSKIPAPKESLRSRSTRMSTVSELRITAQENDMEVELPAAANSRKQFSVPPAPTRPSCPAVAEIPLRMVSEEMEEQVHSIRGSSSANPVNSVRRKSCLVKEVEKMKNKREEKKAQNSEMRMKRAQEYDSSFPNWEFARMIKEFRATLECHPLTMTDPIEEHRICVCVRKRPLNKQELAKKEIDVISIPSKCLLLVHEPKLKVDLTKYLENQAFCFDFAFDETASNEVVYRFTARPLVQTIFEGGKATCFAYGQTGSGKTHTMGGDLSGKAQNASKGIYAMASRDVFLLKNQPCYRKLGLEVYVTFFEIYNGKLFDLLNKKAKLRVLEDGKQQVQVVGLQEHLVNSADDVIKMIDMGSACRTSGQTFANSNSSRSHACFQIILRAKGRMHGKFSLVDLAGNERGADTSSADRQTRMEGAEINKSLLALKECIRALGQNKAHTPFRESKLTQVLRDSFIGENSRTCMIATISPGISSCEYTLNTLRYADRVKELSPHSGPSGEQLIQMETEEMEACSNGALIPGNLSKEEEELSSQMSSFNEAMTQIRELEEKAMEELKEIIQQGPDWLELSEMTEQPDYDLETFVNKAESALAQQAKHFSALRDVIKALRLAMQLEEQASRQISSKKRPQ
As a reminder, the stoichiometry N is a count of units in the complex or per binding partner. For B1, the “stoichiometry N” value was determined as 2.

These data come from paper doi:10.1101/067827 (bioRxiv, 2016).
